Target: CD3 on human pan T cells (human) (UniProt P07766)
Test: flow cytometry, saturation binding on human pan T cells (KdT)

Sequence of CD3 on human pan T cells (human) (P07766 23-207 limits assumed): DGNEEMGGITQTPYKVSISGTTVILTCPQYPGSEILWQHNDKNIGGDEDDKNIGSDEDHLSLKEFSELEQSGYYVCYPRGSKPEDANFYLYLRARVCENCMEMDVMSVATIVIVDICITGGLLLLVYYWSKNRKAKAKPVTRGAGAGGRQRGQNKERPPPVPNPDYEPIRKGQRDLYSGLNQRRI

With “AlexaFluor488 SP34-2 anti-CD3 (antibody)” the Kd was 5.6 nM.
